These results are taken from patent US20190233808.

This data set deals with FITC-labeled bovine type-1 collagen (Chondrex, Cat# 4001) (UniProt P02453).
Chain of FITC-labeled bovine type-1 collagen (Chondrex, Cat# 4001) (P02453 162-1217, chain 1 of 2): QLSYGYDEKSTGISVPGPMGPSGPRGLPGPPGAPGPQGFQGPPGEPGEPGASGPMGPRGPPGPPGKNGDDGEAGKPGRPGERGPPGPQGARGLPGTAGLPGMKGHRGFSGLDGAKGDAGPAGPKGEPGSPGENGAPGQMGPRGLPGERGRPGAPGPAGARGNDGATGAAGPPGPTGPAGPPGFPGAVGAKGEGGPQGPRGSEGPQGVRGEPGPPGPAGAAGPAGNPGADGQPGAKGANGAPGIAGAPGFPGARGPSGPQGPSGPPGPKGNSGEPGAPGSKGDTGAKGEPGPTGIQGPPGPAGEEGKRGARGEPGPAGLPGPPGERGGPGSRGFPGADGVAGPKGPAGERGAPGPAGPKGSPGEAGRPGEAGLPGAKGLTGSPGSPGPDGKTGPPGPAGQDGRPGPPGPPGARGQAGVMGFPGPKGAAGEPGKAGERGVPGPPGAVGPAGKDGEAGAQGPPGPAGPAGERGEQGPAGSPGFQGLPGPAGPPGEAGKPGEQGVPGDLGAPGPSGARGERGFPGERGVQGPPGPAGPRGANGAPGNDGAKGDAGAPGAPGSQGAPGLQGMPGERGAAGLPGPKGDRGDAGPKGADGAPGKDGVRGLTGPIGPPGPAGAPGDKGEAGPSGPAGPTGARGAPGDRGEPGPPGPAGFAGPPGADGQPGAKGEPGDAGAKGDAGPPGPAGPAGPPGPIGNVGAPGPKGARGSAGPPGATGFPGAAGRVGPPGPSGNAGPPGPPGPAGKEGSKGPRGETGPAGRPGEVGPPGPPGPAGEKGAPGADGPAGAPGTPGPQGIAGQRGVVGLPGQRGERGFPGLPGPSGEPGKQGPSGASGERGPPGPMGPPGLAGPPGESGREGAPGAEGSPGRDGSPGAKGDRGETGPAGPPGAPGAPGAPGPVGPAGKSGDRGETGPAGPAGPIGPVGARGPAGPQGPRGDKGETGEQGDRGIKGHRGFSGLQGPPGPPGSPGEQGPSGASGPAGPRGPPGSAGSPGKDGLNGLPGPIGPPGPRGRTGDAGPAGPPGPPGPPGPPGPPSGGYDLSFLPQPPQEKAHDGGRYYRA
Chain of FITC-labeled bovine type-1 collagen (Chondrex, Cat# 4001) (P02453 other isoform, or with tags, fused parts or gaps, chain 2 of 2): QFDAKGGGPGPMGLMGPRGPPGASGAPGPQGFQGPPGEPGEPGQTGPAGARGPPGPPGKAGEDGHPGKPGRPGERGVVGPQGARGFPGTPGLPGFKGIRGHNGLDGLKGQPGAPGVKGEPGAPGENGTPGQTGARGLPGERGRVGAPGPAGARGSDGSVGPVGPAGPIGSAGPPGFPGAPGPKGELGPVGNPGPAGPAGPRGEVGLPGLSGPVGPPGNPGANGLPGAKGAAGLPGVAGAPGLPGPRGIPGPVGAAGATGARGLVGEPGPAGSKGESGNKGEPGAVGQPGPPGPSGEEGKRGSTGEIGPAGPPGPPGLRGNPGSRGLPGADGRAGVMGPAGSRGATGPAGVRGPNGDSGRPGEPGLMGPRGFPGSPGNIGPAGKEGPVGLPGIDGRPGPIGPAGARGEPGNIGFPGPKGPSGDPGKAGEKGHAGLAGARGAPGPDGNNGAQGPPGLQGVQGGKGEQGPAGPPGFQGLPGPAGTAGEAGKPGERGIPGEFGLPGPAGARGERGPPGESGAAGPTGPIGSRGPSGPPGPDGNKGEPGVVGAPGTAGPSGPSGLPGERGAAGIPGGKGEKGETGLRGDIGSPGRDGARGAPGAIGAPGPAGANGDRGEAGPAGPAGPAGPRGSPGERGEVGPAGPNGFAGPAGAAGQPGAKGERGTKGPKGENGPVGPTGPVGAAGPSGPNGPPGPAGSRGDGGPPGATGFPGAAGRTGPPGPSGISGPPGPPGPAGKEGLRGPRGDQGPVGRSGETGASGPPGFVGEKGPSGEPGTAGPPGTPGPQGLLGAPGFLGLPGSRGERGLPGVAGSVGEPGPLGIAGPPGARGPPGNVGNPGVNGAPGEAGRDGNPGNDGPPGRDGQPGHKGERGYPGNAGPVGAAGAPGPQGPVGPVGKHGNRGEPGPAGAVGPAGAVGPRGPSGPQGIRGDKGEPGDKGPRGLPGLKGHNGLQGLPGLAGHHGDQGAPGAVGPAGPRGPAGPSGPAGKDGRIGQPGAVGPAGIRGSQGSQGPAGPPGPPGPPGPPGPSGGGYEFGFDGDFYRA

With trypsin (TPCK-treated), the “collagen degradation on SDS PAGE” value is listed as “did not show degradation of type-1 collagen”.
